# Measurements as given in the DeepSol protein solubility set.
# Assay: soluble on expression in E. coli; label from the status in PepcDB or PDB records
row,Sequence,soluble on expression in E. coli
1,MAMTLAEKILAKASGNTQVSPGDIVMAKVETAMVHDITGPLSVNTLKKEGISKVWDNEKIVIPFDHQIPADSINAAENHILMRNFVKEQNIKHFYDIREGVCHQVLPEKGHIVPGTVVVGADSHTCTYGAFGAFATGIGSTDMAAAFATGELWFKVPET,not soluble
2,MAMYEQRYNSPFLVHDDGPNAPLEHQFAISKLTFELGLLYYQKRTIPFIPLPETPLNEGPGHAVPDVILYDAVAEDTKVIIEVCQNNGQKNDLKKVIRLIEDTEYGILEGFVYNYKSREWFRYRKGDGGAATASSVSEVMGIDMGGFV,not soluble
3,MANFIEKITYLGTPAIKAGNEHLEMIVVPEWGSNVISLVDKTTNVQLLREPETAESFHDTPTLYGIPILFPPNRISDGTFSFRGRTYHFDINEKDKHNHLHGFLYHEKWNVVTTKQTDEGVIVETEIDLSELPHVQKQFPHHAVVRMTYTIKENTLFKHATVMNKGKEAFPWGIGYHTTFIFPAESSLFSLTADQQWELDERLLPTGKLMDVPYKEALHEGMDLRHKQLDDVFLSSYQKRGGENQAVIYHQHAHISIIYKADEQFKHWVVYNADGKQGYLCPEPYTWVTNAVNLDLPSSLTGLQVLEPGEETTAKSSITIELNHQLEHHHHHH,soluble
4,MANGKSKNTKKDGVDKKKTSKTKKKSNLSISKSQTSVDMNEKDKSKEAKEAKELKEKKAKEEAEKKVVATPKKDASKDQAKKEEDPNKQNEPSGMDVLVKEDGKKTKMDDGYEDFGPGAGAAQ,not soluble
5,MANLDDELALFESELAELEQASSNSEEPASSQTHVGYDNATISAGPTTSESSAATSSAQVIQPSLLAAPPFIPIAATIAVSPFINPALGRLPTMPPVPPSIFMPPQLRAAPIMFPPRVLGIPAPATIEGAPALYETPAVNAIPQELLRTQALQSDIDKMNFKKQTDPFKKKIKEQQAKKKFVRSGGGQVWEDPSLAEWDENDFRVFCGDLGNEVSDELLAKAFRKYPSFQKAKVVRESRTNKSKGYGFVSFRDSEDYVRAMREMDGKYVGNRPIKLRKSAWKERNIDVIKQKRKQKKELGIL,soluble
6,MANSETSLQARLWKTLSQSPDVRLWRNNVGTCKAADGRFVRFGLCPGSSDLIGLTRVTITPDMVGQTIALFTAIEVKTPTGRVTPEQQSFIDFVQRSGGRAGVARSMQDANKIISGEGHVLEHHHHHH,not soluble
7,MANTLFDKIWDAHVVQKVEEGPTQLYIDRLYCHEVTSPQAFAGLRARGVKVFRPDHVYCMPDHNTPTHDQDKPIEDPVSKTQVDTLAKNAKDFGLAHFGMMDKRNGIIHVVGPERGLTLPGMTIVCGDSHTSTHGAMGAVAFGIGTSEVEMVLASQCILQSRPKT,not soluble
8,MANVAFGFQEAVFTLESMVANIERQAQTIEKLINENKQLRQENQQLKARIAELEARTKKNSTNSHFPPSSDRFGAKSPSRPPSEKRPGGQPGHQGTTLRQSPNPDHRVLHRVTQCKGCGHSLEHIDPLQVDIRQVFDLPVVRMEVTQHEREIKRCPECRLVQQAEFPFYVTNHVQYGPAVTSLILYWNHAQLIPCERVTEMVKALTGHSMSAGTVVNMTRRWQPVAEAAIEEIEAALLTSSTLHVDETSLRVKGTKQWVHVASTSKETRYGIHRSRGKQATDDIGILPRYKGTMVHDAYAVYPMYTQASHALCHAHHLRELREYTELYHHSWSNKMAEALLEMKQAVEKAGGALPEEKVRYWEAVYDELLSNGRQELDERCRQGNYLGVRKAEHFIRRLEKRKQEALLFLRKKEVPFDNNQAERDLRMVKVKQKISGTFRQEDDAEAFCVIRSVVSTLQKHGKPVWESLQRLLSGESLQTILQSS,not soluble
9,MANVQSGKMIVGLDIGTSKVVALVGEVAADGSLEIVGIGTHPSRGLKKGVVVNIESTVQSIQRAIEEAQLMAGCRIHSAFVGVAGSHIRSLNSHGIVAIRDREVSAADLERVLDAAQAVAIPADQ,not soluble
10,MAPENHDGEKHFAEIVKDFGETSMNDNGLDTGEQAKAFAWGKVRDALSQQVNQHVESWLSPWGNASVDVKVDNEGHFTGSRGSWFVPLQDNDRYLTWSQLGLTQQDNGLVSNVGVGQRWARGNWLVGYNTFYDNLQDENLQRAGFGAEAWGEYLRLSANFYQPFAAWHEQTATQEQRMARGYDLTARMRMPFYQHLNTSVSLEQYFGDRVDLFNSGTGYHNPVALSLGLNYTPVPLVTVTAQHKQGESGENQNNLGLNLNYRFGVPLKKQLSAGEVAESQSLRGSRYDNPQRNNLPTLEYRQRKTLTVFLATPPWDLKPGETVPLKLQIRSRYGIRQLIWQGDTQILSLTPGAQANSAEGWTLIMPDWQNGEGASNHWRLSVVVEDNQGQRVSSNEITLTLVEPFDALSNDELRWEP,not soluble
11,MAPKAEKKPSEKAPKADKKITKEGGSERKKKTKKSTETYKIYLFKVLKQVHPDIGISGKAMGIMNSFINDTFEKIALESSRLARYNKKPTITSREIQTAVRLVLPGELAKHAVSEGTKAVTKFTSS,not soluble
12,MAPLGASPRLVLLFSGKRKSGKDFVTERLKSRLGGNICALLRLSGPLKEEYAREHGLDFQRLLDASTYKETYRRDMICWGEQKRQADPGFFCRKIVEGVSQPIWLVSDTRRTSDIQWFQEAYGAVIQTVRVVASEQSRQQRGWVFTLGVDDAESECGLDNFGNFDWVIENHGDEQCLEDQLEHLLGFIQAKL,soluble
13,MAPLNYKTITSRSILSKVLVRATQQWPTDKTLNKQLSELYGAYVNSFVSKFKDKHVITISLEVVNEKFLKDKTPLFEKGLDTLKEIIWNPLIKDRCFDHTYVAQEKSLLSKKLEAMEDNKAQYSFLQLMNYMFKQEPYRYIATGQLEQIPQVTSESLYDTYLSMVQNDDCAIYVVGNINKEEVTQLILDKFAIKPFYLENKESTEITPSFDQPQYIIEKDDVDQAKLNLGYRFPSYYGKSNYYAFIVLNMMFGGDPSSVLFNEVREKQSLAYSIHSQIDGKNGFLFVLSGVSAEKYEQAKDTVIKEFDKIKNGDFDSNKIELAKKIIISHRHEASDRPKSIIEILHNQLLLNRQQTDQDFINAVNQVTKKDVIKLANEAVLDTIYVLTKGDQH,not soluble
14,MAQHPPYCRNQPGKCQIPLRDLFDRAVVLSHYIHNLSSEMFSEFDKRYTHGRGFITKAINSCHTSSLATPEDKEQAQQMNQKDFLSLIVSILRSWNEPLYHLVTEVRGMQEAPEAILSKAVEIEEQTKRLLEGMELIVSQVHPETKENEIYPVWSGLPSLQMADEESRLSAYYNLLHCLRRDSHKIDNYLKLLKCRIIHNNNC,soluble
15,MAQISGNQTGIGSIHPLLHQNTSDFSEQKFSSVFTGDEFFLRDHVVRGKPVLPGVAYLEMAYAAINQAAGSEIGQDVRIRLNHTVWVQPVVVDRHSAQVDISLFPEEDGKITFDIYSTQEDGDDPVIHSQGSAELASAAETPVADLTEMSRRCGKGKMSPDQFYEEGRSRGMFHGPAFQGIKNVNIGNREVLAQLQLPEIVSGTNEQFVLHPSIMDSALQTATICIMQELTDQKLILPFALEELEVIKGCSSSMWAYARLSDSDHSGGVVQKADIDVIDESGTVCVRIKGFSTRVLEHHHHHH,soluble
16,MAQLAKTAVAALSKKLVAPAAVARRTLATEASPEDYGYYPDPLEHATGREKKMLLARLAGDDRYEPKVYYRAEASTKQKPNLVPSHYDFRIIGCMCEQDSGHVNFMTIRKGDPKRCECGHWFKGVDADPESI,not soluble
17,MAQLFFKYGAMNSGKTIEILKVAHNYEEQDKPVVLMTSGLDTRDGVGKVSSRIGLRRDAIPIFEETNVFDLINDLSYKPFCVLVDECQFLNKHHVIEFARIVDELDIPVMAFGLKNDFRNELFEGSKYLLLYADKLEELKTICWFCHKKATMNLHYIDGNPVYEGDQVQIGGNEAYYPVCRKHYFHPKTVNEEQ,not soluble
18,MAQLTHINAAGEAHMVDVSAKAETVREARAEAFVTMRSETLAMIIDGRHHKGDVFATARIAGIQAAKRTWDLIPLCHPLMLSKVEVNLQAEPEHNRVRIETLCRLTGKTGVEMEALTAASVAALTIYDMCKAVQKDMVIGPVRLLAKSGGKSGDFKVEADD,soluble
19,MAQMTMVQAITDALRIELKNDPNVLIFGEDVGVNGGVFRATEGLQAEFGEDRVFDTPLAESGIGGLAIGLALQGFRPVPEIQFFGFVYEVMDSICGQMARIRYRTGGRYHMPITIRSPFGGGVHTPELHSDSLEGLVAQQPGLKVVIPSTPYDAKGLLISAIRDNDPVIFLEHLKLYRSFRQEVPEGEYTIPIGKADIKREGKDITIIAYGAMVHESLKAAAELEKEGISAEVVDLRTVQPLDIETIIGSVEKTGRAIVVQEAQRQAGIAANVVAEINERAILSLEAPVLRVAAPDTVYPFAQAESVWLPNFKDVIETAKKVMNF,soluble
20,MAQNLIFITIALVAIVNAGPGEEREKGPGEHKRGGKHHGFPSFFGNVSAEGRKEIAVVFKNENLTLAQADTQIASLAEKYGFAAAYKEHKEKEAVRQAETKKNTTTVINNLSSVATKLSAIRENKDQTRKAQHEAIEALRNENGVEVDTIEFIAKRSRGFGGRHGGRKGGKGGKHFGKKNGDKKRGPHGGDEEGKKTKEAAQ,not soluble
21,MAQTLAQTKQISQSHTFDVSQSHHKTPDDTNSHSVIYSTQNLDLWYGENHALQNINLDIYENQITAIIGPSGCGKSTYIKTLNRMVELVPSVKTAGKILYRDQDIFDQKYSKEQLRTNVGMVFQQPNPFPKSIYDNITYGPKIHGIKNKKVLDEIVEKSLRGAAIWDELKDRLHTNAYSLSGGQQQRVCIARCLAIEPEVILMDEPTSALDPISTLRVEELVQELKEKYTIIMVTHNMQQAARVSDKTAFFLNGYVNEYDDTDKIFSNPSNKKTEDYISGRFG,not soluble
22,MAQVLSLENVTLAVEKENSKQAIVKHVSFFINEGEIVALVGESGSGKSVTAQSIIGLNQESIQFDDGNISFESKDLTNLQESEWNQIRGKDISFIFQDPLSSLNPTMKVGRQITEVILQHEKKSKKEAKEIAINLLNDLGIHEAEKRFEQYPHQLSGGMRQRICLAIAFACHPKLVIADEPTTALDVTIQKQIMGLLKERKEKQNTSILLITHDLALVREVADRVVVMYGGRIVEKGTIQEVIGSPKHPYTKSLLQAIPNMDDAEKVLRAIEGTTPSIETLNSFGCPFVNRCPVAIQECIHRFPERTTYSAEHSSHCWQHVLEHDRAKSKEKVNVS,not soluble
23,MARASSTKARKQRHDPLLKDLDAAQGTLKKINKKKLAQNDAANHDAANEEDGYIDSKASRKILQLAKEQQDEIEGEELAESERNKQFEARFTTMSYDDEDEDEDEDEEAFGEDISDFEPEGDYKEEEEIVEIDEEDAAMFEQYFKKSDDFNSLSGSYNLADKIMASIREKESQVEDMQDDEPLANEQNTSRGNISSGLKSGEGVALPEKVIKAYTTVGSILKTWTHGKLPKLFKVIPSLRNWQDVIYVTNPEEWSPHVVYEATKLFVSNLTAKESQKFINLILLERFRDNIETSEDHSLNYHIYRAVKKSLYKPSAFFKGFLFPLVETGCNVREATIAGSVLAKVSVPALHSSAALSYLLRLPFSPPTTVFIKILLDKKYALPYQTVDDCVYYFMRFRILDDGSNGEDATRVLPVIWHKAFLTFAQRYKNDITQDQRDFLLETVRQRGHKDIGPEIRRELLAGASREFVDPQEANDDLMIDVN,soluble
24,MARDVKKRGKPAYTNRRNRQKYLKKKDNKKKLSKSAVPIIKYTWDETKTPRENVRDMGIAFNPNDAVPIAEHRKEIIDAEPIDGVSIVVPKPEKKVTGRKKNEKQAAHIISNLEQQVKEEEEARAGQDRKFRLFHRETELCVYMLARHGEDFQAMTRDPKNLWQYTPKQWAKKIRTHKESEMCKFLETA,not soluble
25,MARFSSVLIYDGECPYCSVAAKALEQVDDIGAISWYDESAQSFLTAQFDEPPFAMVLVDRPAQQVYAGRAAAEELAGRAGLPDLVGSLVRDNYEKIAHVVGLASGRGREPDDVHERYVLADDAQDRFDTLAKDAVDRDIRADALEHHHHHH,soluble
